These results are taken from publication PMC10530332.

Experiment [1] concerns the target natural nurse shark UrIg (nurse shark (Ginglymostoma cirratum) (endogenous in nurse shark tissues)). As to the kind of experiment: non-reducing SDS-PAGE with western blot.
In experiment [2] the target is recombinant UrIg, 4-domain molecule (V-C1-C2-C3) with C-terminal His tag (nurse shark (Ginglymostoma cirratum)). As to the kind of experiment: SEC.
For experiment [3] the target is unchanged. As to the kind of experiment: SDS-PAGE, non-reducing against reducing.

The substance “natural nurse shark UrIg (natural protein)” returned a stoichiometry N in experiment [1] of 2.

For the substance “recombinant UrIg, 4-domain molecule (V-C1-C2-C3) with C-terminal His tag (natural protein)”, the stoichiometry N in experiment [2] and in experiment [3] was 2 each time.
